# According to publication PMC8261865, “A Structural View on the Stereospecificity of Plant Borneol‐Type Dehydrogenases” (Chemcatchem, 2021):
# Assays:
# AaADH2 = target: T1, AaADH2 (Artemisia annua, UniProt E5DD06); assay: spectrophotometric cofactor use; format: biochemical
# T1 construct: gene Adh2
# T1 sequence (E5DD06 1-265): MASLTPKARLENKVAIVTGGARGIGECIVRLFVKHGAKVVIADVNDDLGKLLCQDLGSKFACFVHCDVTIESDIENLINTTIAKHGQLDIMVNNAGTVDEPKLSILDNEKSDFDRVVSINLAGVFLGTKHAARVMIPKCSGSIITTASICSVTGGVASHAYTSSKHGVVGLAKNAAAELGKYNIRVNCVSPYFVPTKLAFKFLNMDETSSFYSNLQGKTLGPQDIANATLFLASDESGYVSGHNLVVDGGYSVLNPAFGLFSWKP
# SrBDH1 = target: T2, SrBDH1 (Salvia rosmarinus, UniProt A0A8K1HPF5); assay: X-ray crystal structure of binary complex ([…] Å); format: binding; settings: NAD+ co-purified with the enzyme; two crystal forms (high salt; PO/OH)
# T2 construct: N-terminal His-tag (pET15b), codon-optimised, E. coli BL21(DE3); homotetramer by SEC/MALS
# T2 sequence (A0A8K1HPF5 1-270): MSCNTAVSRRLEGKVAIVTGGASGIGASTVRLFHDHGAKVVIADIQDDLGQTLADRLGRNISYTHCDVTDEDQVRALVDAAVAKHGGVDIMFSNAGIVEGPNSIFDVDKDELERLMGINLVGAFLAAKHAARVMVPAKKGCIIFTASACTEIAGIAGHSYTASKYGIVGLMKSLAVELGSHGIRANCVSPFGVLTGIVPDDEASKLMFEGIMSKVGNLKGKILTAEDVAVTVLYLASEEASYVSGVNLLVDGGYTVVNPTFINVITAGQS
# [1] = target: Borneol-type dehydrogenase 1 from Salvia rosmarinus (Salvia rosmarinus); assay: crystal structure; sitting-drop vapor diffusion at 18 °C; two conditions: high NaCl (2.7-3.2 M, Bis-Tris pH 5.5-7.2) and pentaerythritol propoxylate (PO/OH, HEPES pH 7.0-7.8); tetramer in both
# [2] = target: Borneol-type dehydrogenase 1 from Salvia rosmarinus (Salvia rosmarinus); assay: SEC-MALS; Superdex 200 increase 10/300 with miniDAWN TREOS and refractive index detector; 18 °C
# [3] = target: Borneol-type dehydrogenase 1 from Salvia rosmarinus (Salvia rosmarinus); assay: SEC; HiLoad 16/60 Superdex 200; Tris-HCl 100 mM, 500 mM NaCl, pH 8; 1 mL/min; calibrated with mass standards (44-440 kDa)
# [4] = target: Borneol-type dehydrogenase 2 from Salvia rosmarinus (Salvia rosmarinus); assay: as above
# [5] = target: Borneol-type dehydrogenase 3 from Salvia officinalis (Salvia officinalis L.); assay: as above
compound,measurement,setting,value
NC(=O)c1ccc[n+]([C@@H]2O[C@H](COP(=O)(O)OP(=O)(O)OC[C@H]3O[C@@H](n4cnc5c(N)ncnc54)[C@H](OP(=O)(O)O)[C@@H]3O)[C@@H](O)[C@H]2O)c1 [NADP^+],spectrophotometric cofactor use,AaADH2,AaADH2 was the only enzyme also capable of using NADP^+
NC(=O)c1ccc[n+]([C@@H]2O[C@H](COP(=O)(O)OP(=O)(O)OC[C@H]3O[C@@H](n4cnc5c(N)ncnc54)[C@H](O)[C@@H]3O)[C@@H](O)[C@H]2O)c1 [NAD^+],X-ray crystal structure of binary complex (2.8 Å),SrBDH1,the structure represents the binary complex (SrBDH1 ⋅ NAD^+ /high salt)
Borneol-type dehydrogenase 1 from Salvia rosmarinus (enzyme),stoichiometry N,[1],4
same,stoichiometry N,[2],4
same,stoichiometry N,[3],4
Borneol-type dehydrogenase 2 from Salvia rosmarinus (enzyme),stoichiometry N,[4],4
Borneol-type dehydrogenase 3 from Salvia officinalis (enzyme),stoichiometry N,[5],4
